Values of other authors, collected in patent US20240024427A1, “METHOD OF REDUCING INTRAOCULAR PRESSURE” (INVEX THERAPEUTICS LTD, priority 2020, published 2024).
Like-named read-outs stand apart in the source and are kept apart here.

Legend:
[1] = conscious rat model, dosed subcutaneously, immediate release formulation

Substance	Mean plasma terminal half-life (per SmPC)	further results
Albiglutide	Approximately 5 days	–
Dulaglutide	108 to 113 h	–
Lixisenatide	–	Mean plasma terminal half-life (per SmPC or FDA product label): Approximately 3 hours
Semaglutide	Approximately 1 week	–
exendin-4	–	effect on intracranial pressure (ICP) compared to a saline control [1]: reduced ICP
